From patent US20200087373A1 (UNIVERSITY OF COPENHAGEN, published 2020)
“And” between values parts separate entries of the source, which are not always exact repeats. Identical values can stand only once. Ends that are not written are not given here. * marks the point of attachment. C16 diacid = O=C(O)CCCCCCCCCCCCCCC(=O)*

B1: AT183 [hGIP(5-30)NH2[V23K]-C16diacid/23] (peptide)
peptide: TFISDYSIAMDKIHQQDFK(C16 diacid)NWLLAQK-NH2
modifications: N-terminus assumed
SMILES: CC[C@H](C)[C@H](NC(=O)[C@H](CO)NC(=O)[C@H](Cc1ccc(O)cc1)NC(=O)[C@H](CC(=O)O)NC(=O)[C@H](CO)NC(=O)[C@@H](NC(=O)[C@H](Cc1ccccc1)NC(=O)[C@@H](N)[C@@H](C)O)[C@@H](C)CC)C(=O)N[C@@H](C)C(=O)N[C@@H](CCSC)C(=O)N[C@@H](CC(=O)O)C(=O)N[C@@H](CCCCN)C(=O)N[C@H](C(=O)N[C@@H](Cc1c[nH]cn1)C(=O)N[C@@H](CCC(N)=O)C(=O)N[C@@H](CCC(N)=O)C(=O)N[C@@H](CC(=O)O)C(=O)N[C@@H](Cc1ccccc1)C(=O)N[C@@H](CCCCNC(=O)CCCCCCCCCCCCCCC(=O)O)C(=O)N[C@@H](CC(N)=O)C(=O)N[C@@H](Cc1c[nH]c2ccccc12)C(=O)N[C@@H](CC(C)C)C(=O)N[C@@H](CC(C)C)C(=O)N[C@@H](C)C(=O)N[C@@H](CCC(N)=O)C(=O)N[C@@H](CCCCN)C(N)=O)[C@@H](C)CC
B2: AT189 [hGIP(5-30)NH2[Q29K]-C16diacid/29] (peptide)
peptide: TFISDYSIAMDKIHQQDFVNWLLAK(C16 diacid)K-NH2
modifications: N-terminus assumed
SMILES: CC[C@H](C)[C@H](NC(=O)[C@H](CO)NC(=O)[C@H](Cc1ccc(O)cc1)NC(=O)[C@H](CC(=O)O)NC(=O)[C@H](CO)NC(=O)[C@@H](NC(=O)[C@H](Cc1ccccc1)NC(=O)[C@@H](N)[C@@H](C)O)[C@@H](C)CC)C(=O)N[C@@H](C)C(=O)N[C@@H](CCSC)C(=O)N[C@@H](CC(=O)O)C(=O)N[C@@H](CCCCN)C(=O)N[C@H](C(=O)N[C@@H](Cc1c[nH]cn1)C(=O)N[C@@H](CCC(N)=O)C(=O)N[C@@H](CCC(N)=O)C(=O)N[C@@H](CC(=O)O)C(=O)N[C@@H](Cc1ccccc1)C(=O)N[C@H](C(=O)N[C@@H](CC(N)=O)C(=O)N[C@@H](Cc1c[nH]c2ccccc12)C(=O)N[C@@H](CC(C)C)C(=O)N[C@@H](CC(C)C)C(=O)N[C@@H](C)C(=O)N[C@@H](CCCCNC(=O)CCCCCCCCCCCCCCC(=O)O)C(=O)N[C@@H](CCCCN)C(N)=O)C(C)C)[C@@H](C)CC
B3: AT185 [hGIP(5-30)NH2[W25K]-C16diacid/25] (peptide)
peptide: TFISDYSIAMDKIHQQDFVNK(C16 diacid)LLAQK-NH2
modifications: N-terminus assumed
SMILES: CC[C@H](C)[C@H](NC(=O)[C@H](CO)NC(=O)[C@H](Cc1ccc(O)cc1)NC(=O)[C@H](CC(=O)O)NC(=O)[C@H](CO)NC(=O)[C@@H](NC(=O)[C@H](Cc1ccccc1)NC(=O)[C@@H](N)[C@@H](C)O)[C@@H](C)CC)C(=O)N[C@@H](C)C(=O)N[C@@H](CCSC)C(=O)N[C@@H](CC(=O)O)C(=O)N[C@@H](CCCCN)C(=O)N[C@H](C(=O)N[C@@H](Cc1c[nH]cn1)C(=O)N[C@@H](CCC(N)=O)C(=O)N[C@@H](CCC(N)=O)C(=O)N[C@@H](CC(=O)O)C(=O)N[C@@H](Cc1ccccc1)C(=O)N[C@H](C(=O)N[C@@H](CC(N)=O)C(=O)N[C@@H](CCCCNC(=O)CCCCCCCCCCCCCCC(=O)O)C(=O)N[C@@H](CC(C)C)C(=O)N[C@@H](CC(C)C)C(=O)N[C@@H](C)C(=O)N[C@@H](CCC(N)=O)C(=O)N[C@@H](CCCCN)C(N)=O)C(C)C)[C@@H](C)CC
B4: AT184 [hGIP(5-30)NH2[N24K]-C16diacid/24] (peptide)
peptide: TFISDYSIAMDKIHQQDFVK(C16 diacid)WLLAQK-NH2
modifications: N-terminus assumed
SMILES: CC[C@H](C)[C@H](NC(=O)[C@H](CO)NC(=O)[C@H](Cc1ccc(O)cc1)NC(=O)[C@H](CC(=O)O)NC(=O)[C@H](CO)NC(=O)[C@@H](NC(=O)[C@H](Cc1ccccc1)NC(=O)[C@@H](N)[C@@H](C)O)[C@@H](C)CC)C(=O)N[C@@H](C)C(=O)N[C@@H](CCSC)C(=O)N[C@@H](CC(=O)O)C(=O)N[C@@H](CCCCN)C(=O)N[C@H](C(=O)N[C@@H](Cc1c[nH]cn1)C(=O)N[C@@H](CCC(N)=O)C(=O)N[C@@H](CCC(N)=O)C(=O)N[C@@H](CC(=O)O)C(=O)N[C@@H](Cc1ccccc1)C(=O)N[C@H](C(=O)N[C@@H](CCCCNC(=O)CCCCCCCCCCCCCCC(=O)O)C(=O)N[C@@H](Cc1c[nH]c2ccccc12)C(=O)N[C@@H](CC(C)C)C(=O)N[C@@H](CC(C)C)C(=O)N[C@@H](C)C(=O)N[C@@H](CCC(N)=O)C(=O)N[C@@H](CCCCN)C(N)=O)C(C)C)[C@@H](C)CC
B5: AT186 [hGIP(5-30)NH2[L26K]-C16diacid/26] (peptide)
peptide: TFISDYSIAMDKIHQQDFVNWK(C16 diacid)LAQK-NH2
modifications: N-terminus assumed
SMILES: CC[C@H](C)[C@H](NC(=O)[C@H](CO)NC(=O)[C@H](Cc1ccc(O)cc1)NC(=O)[C@H](CC(=O)O)NC(=O)[C@H](CO)NC(=O)[C@@H](NC(=O)[C@H](Cc1ccccc1)NC(=O)[C@@H](N)[C@@H](C)O)[C@@H](C)CC)C(=O)N[C@@H](C)C(=O)N[C@@H](CCSC)C(=O)N[C@@H](CC(=O)O)C(=O)N[C@@H](CCCCN)C(=O)N[C@H](C(=O)N[C@@H](Cc1c[nH]cn1)C(=O)N[C@@H](CCC(N)=O)C(=O)N[C@@H](CCC(N)=O)C(=O)N[C@@H](CC(=O)O)C(=O)N[C@@H](Cc1ccccc1)C(=O)N[C@H](C(=O)N[C@@H](CC(N)=O)C(=O)N[C@@H](Cc1c[nH]c2ccccc12)C(=O)N[C@@H](CCCCNC(=O)CCCCCCCCCCCCCCC(=O)O)C(=O)N[C@@H](CC(C)C)C(=O)N[C@@H](C)C(=O)N[C@@H](CCC(N)=O)C(=O)N[C@@H](CCCCN)C(N)=O)C(C)C)[C@@H](C)CC
B6: AT187 [hGIP(5-30)NH2[L27K]-C16diacid/27] (peptide)
peptide: TFISDYSIAMDKIHQQDFVNWLK(C16 diacid)AQK-NH2
modifications: N-terminus assumed
SMILES: CC[C@H](C)[C@H](NC(=O)[C@H](CO)NC(=O)[C@H](Cc1ccc(O)cc1)NC(=O)[C@H](CC(=O)O)NC(=O)[C@H](CO)NC(=O)[C@@H](NC(=O)[C@H](Cc1ccccc1)NC(=O)[C@@H](N)[C@@H](C)O)[C@@H](C)CC)C(=O)N[C@@H](C)C(=O)N[C@@H](CCSC)C(=O)N[C@@H](CC(=O)O)C(=O)N[C@@H](CCCCN)C(=O)N[C@H](C(=O)N[C@@H](Cc1c[nH]cn1)C(=O)N[C@@H](CCC(N)=O)C(=O)N[C@@H](CCC(N)=O)C(=O)N[C@@H](CC(=O)O)C(=O)N[C@@H](Cc1ccccc1)C(=O)N[C@H](C(=O)N[C@@H](CC(N)=O)C(=O)N[C@@H](Cc1c[nH]c2ccccc12)C(=O)N[C@@H](CC(C)C)C(=O)N[C@@H](CCCCNC(=O)CCCCCCCCCCCCCCC(=O)O)C(=O)N[C@@H](C)C(=O)N[C@@H](CCC(N)=O)C(=O)N[C@@H](CCCCN)C(N)=O)C(C)C)[C@@H](C)CC

What follows are binders tested against T1, human GIP receptor (human, UniProt P48546 22-466) (assay: IC50 with 2% HSA over IC50 with 0.1% casein, 125I-hGIP competition, COS-7/hGIPR).
T1 construct: whole, on cells; also called hGIPR
T1 sequence (looked up): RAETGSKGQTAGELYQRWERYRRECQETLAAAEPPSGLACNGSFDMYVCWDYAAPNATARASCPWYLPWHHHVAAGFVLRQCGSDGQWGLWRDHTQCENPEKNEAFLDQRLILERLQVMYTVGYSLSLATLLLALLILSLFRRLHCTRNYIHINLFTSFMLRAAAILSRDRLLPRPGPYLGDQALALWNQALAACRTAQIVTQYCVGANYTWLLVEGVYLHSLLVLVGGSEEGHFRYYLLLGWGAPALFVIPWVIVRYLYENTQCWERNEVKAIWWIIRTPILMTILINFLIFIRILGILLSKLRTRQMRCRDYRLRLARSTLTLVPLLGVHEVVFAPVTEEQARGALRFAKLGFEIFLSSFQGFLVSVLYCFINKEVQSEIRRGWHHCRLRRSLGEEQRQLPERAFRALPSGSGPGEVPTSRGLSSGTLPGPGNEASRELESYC
Procedure: (§1) After incubation, the cells were washed twice in ice-cold binding buffer (+/−2% HSA) and lysed using 200 mM NaOH with 1% SDS for 30 min. Nonspecific binding was determined as the binding of radioactive ligand to untransfected cells.

Binder	Fold change HSA (2%)/Casein (0.1%) [fold]
B1	1.8
B2	3.2
B3	4.7
B4	1.6
B5	3.8
B6	4.7

Each binder was assayed against T2, human GIP receptor (human, UniProt P48546 22-466) (assay: 125I-hGIP(1-42) competition binding, COS-7 cells expressing human GIPR, with 2% HSA;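 further: nonspecific signal taken as radioligand bound to untransfected cells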).
T2 construct: whole, on cells; Transiently transfected COS-7 cells expressing the human GIP receptor; also called hGIPR
T2 sequence (looked up): T1 sequence (looked up)
Procedure: as §1

Binder	Ki [nM]
TFISDYSIAMDKIHQQDFVNWLLAQK-NH2 (Not lipidated) [hGIP(5-30)NH2]	6.7

These binders were tested against T2, human GIP receptor (assay: ratio of Ki with 2% HSA to Ki without HSA, 125I-hGIP competition binding on hGIPR COS-7 cells;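 further: nonspecific binding was defined as radioligand signal on cells lacking the receptor transfection, with cell lysates measured after washes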).
Procedure: as §1

Binder	Fold (Ki + HSA / Ki - HSA) [fold]
TFISDYSIAMDKIHQQDFVNWLLAQK-NH2 (Not lipidated) [hGIP(5-30)NH2]	1

What follows are binders tested against T1, human GIP receptor (assay: cell-based or functional assay).

Binder	cAMP agonism, Emax	cAMP antagonism [nM]	cAMP antagonism, log [log M]	cAMP agonism [nM]	cAMP agonism, EC50 (log)
B1	0	1770	-5.8	–	–
B2	12	79	-7.1	79	-7 log M and -7.1 log M
B3	18	44	-7.4	44	-7 log M
B4	0	91	-7	–	–
B5	0	79	-7.1	–	–
B6	25	2380	-5.6	2380	-6 log M and -5.6 log M

Each binder was assayed against T2, human GIP receptor (assay: 125I-hGIP(1-42) competition binding, COS-7 cells expressing human GIPR, without HSA;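 further: nonspecific binding defined as radioligand bound to cells lacking the transfected receptor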).
Procedure: as §1

Binder	Ki [nM]
TFISDYSIAMDKIHQQDFVNWLLAQK-NH2 (Not lipidated) [hGIP(5-30)NH2]	6.3

The binders below were run against T1, human GIP receptor (assay: 125I-hGIP competition binding, COS-7/hGIPR, 2% HSA;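 further: nonspecific binding defined as radioligand binding to untransfected cells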).
Procedure: as §1

Binder	IC50 [nM]	logIC50 [log M]
B1	1700	-5.8
B2	575	-6.2
B3	1150	-5.9
B4	11200	-5
B5	331	-6.5
B6	676	-6.2

What follows are binders tested against T1, human GIP receptor (assay: 125I-hGIP competition binding, COS-7 cells expressing hGIPR;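 further: nonspecific binding taken as radioligand bound by untransfected cells, binding buffer with or without 2% HSA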).
Procedure: as §1

Binder	IC50 [nM]	log IC50
B1	7130	-5.1 log M
B2	118	-6.9 log M and -6.93 log M
B3	87	-7.1 log M
B4	247	-6.6 log M
B5	144	-6.8 log M and -6.84 log M
B6	26500	-4.6 log M and -4.58 log M

What follows are binders tested against T2, human GIP receptor (assay: cell-based or functional assay).

Binder	cAMP accumulation IC50 [nM]	cAMP accumulation logIC50
TFISDYSIAMDKIHQQDFVNWLLAQK-NH2 (Not lipidated) [hGIP(5-30)NH2]	27.5	-7.56 log(M)

These binders were tested against T1, human GIP receptor (assay: 125I-hGIP competition binding, COS-7/hGIPR, 0.1% casein;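 further: nonspecific binding defined as radioligand binding measured on untransfected cells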).
Procedure: as §1

Binder	IC50 [nM]	logIC50 [log M]
B1	955	-6
B2	182	-6.7
B3	246	-6.6
B4	7080	-5.2
B5	87.1	-7.1
B6	144	-6.8
